# Patent US20190225687A1 (I MAB, published 2019)
# Substitutions are numbered along the chain they refer to.
# T1: LAG3 antigen of the Octet RED96 runs (UniProt P18627 23-450, limits assumed)
# T1 sequence (looked up): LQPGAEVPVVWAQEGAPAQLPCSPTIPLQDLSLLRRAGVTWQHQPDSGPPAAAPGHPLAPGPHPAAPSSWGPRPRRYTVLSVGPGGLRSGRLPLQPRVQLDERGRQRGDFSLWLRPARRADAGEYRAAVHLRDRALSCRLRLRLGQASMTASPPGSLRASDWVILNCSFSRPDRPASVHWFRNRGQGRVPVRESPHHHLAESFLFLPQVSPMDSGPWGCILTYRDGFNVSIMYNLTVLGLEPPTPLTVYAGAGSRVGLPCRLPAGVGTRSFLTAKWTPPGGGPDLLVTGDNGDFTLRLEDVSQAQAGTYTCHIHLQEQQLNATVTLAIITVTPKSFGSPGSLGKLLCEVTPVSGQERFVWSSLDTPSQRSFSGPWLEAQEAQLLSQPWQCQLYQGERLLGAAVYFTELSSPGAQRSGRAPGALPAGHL
# T2: human LAG3 of the LAG3 and MHC II binding assay kit (Cisbio, 64ICP03PEG) (human, UniProt P18627 23-450, limits assumed)
# T2 construct: Bought kit reagent
# T2 sequence (looked up): T1 sequence (looked up)
# B1: 147H-6 (antibody, V domains shown)
# VH: QVQLVQSGAEVKKPGASVKVSCKASGYTFTNYWLGWIKQAPGQGLEWIGDIYPGGDYINYNEKFKGKATLTADTSISTAYMELSRLRSDDTAVYYCARPNLPGDYWGQGTTVTVSS
# VL: DIVMTQSPLSLPVTPGEPASISCRSSKSLLHSNGITYLYWYLQKPGQSPQLLIYQVSNLASGVPDRFSGSGSGTDFTLKISRVEAEDVGVYYCAQNLELPWTFGGGTKVEIK
# B2: 147H-13 (antibody, V domains shown)
# VH: B1 VH with Q1E
# VL: B1 VL
# notes: also called 147H4-13
# B3: 147H 3810 (antibody, V domains shown)
# VH: B1 VH with Q1E, T28L, N59V, G103K, Y105H
# VL: B1 VL with G34A, S61T, N96Y
# notes: also called B3810
# B4: 147H 3792 (antibody, V domains shown)
# VH: B1 VH with Q1E, N59V
# VL: B1 VL with G34A, N96Y
# B5: 147H 3663 (antibody, V domains shown)
# VH: B1 VH with Q1E, T30E, N59V
# VL: B1 VL with G34A, S61R
# B6: 147H 3809 (antibody, V domains shown)
# VH: B1 VH with Q1E, T28L, N59V, G103K, Y105H
# VL: B1 VL with G34A, N96Y
# B7: 147H 3669 (antibody, V domains shown)
# VH: B1 VH with Q1E, T28L, N59V
# VL: B1 VL with G34A
# B8: 147H 3550 (antibody, V domains shown)
# VH: B1 VH with Q1E, G103K, Y105H
# VL: B1 VL with G34A, N96Y
# B9: 147H 3549 (antibody, V domains shown)
# VH: B1 VH with Q1E, G103K, Y105H
# VL: B1 VL with G34A, N96Y, L99E
# B10: 147H 3808 (antibody, V domains shown)
# VH: B1 VH with Q1E, N59V, G103K, Y105H
# VL: B1 VL with G34A, A94G, N96Y
# B11: 147H 3807 (antibody, V domains shown)
# VH: B1 VH with Q1E, N59V, G103K, Y105H
# VL: B1 VL with G34A, N96Y
# notes: also called B3807
# B12: 147H 3421 (antibody, V domains shown)
# VH: B1 VH with Q1E, G103K, Y105H
# VL: B1 VL with G34A
# B13: 147H 3668 (antibody, V domains shown)
# VH: B1 VH with Q1E, N59V
# VL: B1 VL with G34A, S61T
# B14: 147H 3811 (antibody, V domains shown)
# VH: B1 VH with Q1E, T28L, N59V, G103K, Y105H
# VL: B1 VL with G34A, S61T, A94G, N96Y
# B15: 147H 3508 (antibody, V domains shown)
# VH: B1 VH with Q1E, G103K, Y105H
# VL: B1 VL with G34A, A94G
# B16: 147H 3794 (antibody, V domains shown)
# VH: B1 VH with Q1E, T28L, N59V
# VL: B1 VL with G34A, N96Y
# Target: T1, LAG3 antigen of the Octet RED96 runs
# Experiment: BLI, Octet RED96, full kinetics, antigen 3.125-50 nM
# Description: The binding affinity was calculated by software in Octet® RED96 System.
Kd [nM],koff [s⁻¹],kon [M⁻¹ s⁻¹],Binder
26.5,0.00312,118000,B1

# Target: T2, human LAG3 of the LAG3 and MHC II …
# Experiment: TR-FRET LAG3/MHC II binding assay (Cisbio); blocks MHC II
# Description: To measure the ability of anti-LAG3 monoclonal antibodies to block the interaction between human LAG3 and MHCII, the LAG3 and MHC II binding assay (Cisbio, 64ICP03PEG) were performed utilizing homogeneous TR-FRET technology, following the protocol provided by the kit manufacturer. Anti-human LAG3 antibodies were 3-fold diluted ranging from 100 nM to 5 pM (10 points). Fluorescence data was acquired on a PerkinElmer Envision plate reader and a four-parameter dose-response curve was fitted to obtain IC50 of each antibody.
row,IC50 [nM],Binder
1,2.2 to 7.6,B2
2,0.63,B3
3,0.73,B4
4,2.7,B5
5,0.96,B6
6,1.2,B7
7,0.39,B8
8,0.44,B9
9,0.5,B10
10,0.31,B11
11,1.5,B12
12,0.9,B13
13,0.59,B14
14,0.55,B15
15,0.63,B16
